Assays:
[1] = molecular target: HEK293-hLAG3 and HEK293-mfLAG3 cells; assay: cell binding assay of Table 12, LAG3-expressing HEK293 cells against parental HEK293 cells
[2] = molecular target: cynomolgus LAG3 on activated CD4+ and CD8+ cynomolgus T cells (cynomolgus); assay: FACS, stimulated cynomolgus CD4+ T cells, donor 1

Row | Substance | ratio of binding above the HEK293 parental cells [1] [fold] | Ratio of MFI (11 nM/0 nM) [2]
1 | H4H isotype control and the H4sH isotype control | 0.7 to 1.1 | 
2 | hIgG4 isotype control (antibody) |  | 1

— patent publication US20170101472A1
